{
  "source": "paper doi:10.1101/2025.04.01.646186",
  "about": "(bioRxiv, 2025)",
  "target": "PSMA2 (subunit of the human 20S proteasome) (human, UniProt P25787 1-234)",
  "sequence (P25787 whole entry)": "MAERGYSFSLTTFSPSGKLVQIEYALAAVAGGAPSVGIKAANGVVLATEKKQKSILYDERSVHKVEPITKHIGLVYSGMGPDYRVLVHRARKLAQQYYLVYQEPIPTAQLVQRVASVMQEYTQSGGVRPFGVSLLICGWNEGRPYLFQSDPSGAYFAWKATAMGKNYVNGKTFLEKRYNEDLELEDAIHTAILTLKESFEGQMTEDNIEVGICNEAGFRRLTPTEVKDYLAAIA",
  "assay": "cryo-EM structure",
  "data": [
    {"binder": "H-DNDDDLYG-OH", "note": "[VCP C-terminal HbYX peptide H-DNDDDLYG-OH]", "values": [
      {"measurement": "binding result", "result": "binds"}
    ]}
  ]
}
